According to patent US20230380451A1, “MEANS AND METHODS TO DETOXIFY MYCOTOXINS” (priority 2020, published 2023):

Legend:
[1] = Storage stability at different pH values, residual DON transformation activity; format: biochemical; details: for Relative DON-transformation activity: storage at 30° C.
Method: (§1) To determine the transformation of DON to epi-THS by Akr I-III, described herein, the following assay was performed. An assay buffer was prepared containing 40 ppm DON, 1 mM NADPH in Teorell Stenhagen (TS) buffer, pH 6.0 (Östling and Virtama, Acta Physiologica Scandinavica, 1946, 11:4, 289-293). Tubes containing the assay buffer were transferred in a heating block at 30° C. The reaction was started by addition of Akr I-III to a final concentration of 200 nM in a final reaction volume of 200 μL. Samples were taken before reaction start, and 2, 5, 10, 15 and 20 min after reaction start. DON transformation reactions in these samples were stopped by mixing with absolute methanol at a 1:2 ratio, followed by a 1:100 dilution with 40% methanol. The concentrations of DON and epi-THS in the samples were determined with liquid chromatography-mass spectrometry (LC-MS) on a Sciex 5500 triple quadrupole mass spectrometer coupled to Agilent 1290 series UHPLC system, using the following MS parameters: Acquisition duration: 4 min; Scan Type: MRM (MRM); Polarity: Negative; Ion Source: Turbo Spray.
The storage stability of Akr I-III at different pH values was tested by incubating 1 μM enzyme in TS buffer solutions with a pH of 3.0-10.0 for 4 h at 30° C. in standard 1.5 ml Eppendorf tubes. Every hour, a DON transformation assay was conducted as described in Example 3. The starting activity at time 0 min was set to 100% and the relative residual activities were determined throughout the incubation. For the DON transformation assays, 80 μl of the storage solution were added to an assay reaction with a final volume of 400 μl, which corresponds to a 1:5 dilution of the storage solution. Akr I retained more than 93% activity during 4 hours at 30° C. from pH 4.0-10.0. Akr II retained 30% to 93% activity during 4 hours at 30° C. from pH […] retained 27% to 85% activity during 4 hours at 30° C. from pH 4.0-9.0. Akr I-III retained more than 40% of their activity for 4 hours at 30° C. from pH 4.0 to pH 8.0.

[2] = Storage stability in storage buffer at different temperatures, residual DON transformation activity; format: biochemical; details: for Relative DON transformation activity: storage buffer
Method: as §1
The storage stability of Akr I-III was tested by incubation of 5 μM enzyme solutions in storage buffer (50 mM Tris pH 9.0, 0.5M NaCl, 50% Glycerol), for 60 min in a thermocycler (Mastercycler, Eppendorf) set to gradient mode from 30° C. to 50° C. Throughout the incubation, samples were removed and placed on ice until DON transformation assays were performed as described in Example 3 to determine enzyme activities. The starting activity at time 0 min was set to 100% and the relative residual activities were determined throughout the incubation. Akr I retained more than 33% activity during 60 min in pH 6 at temperatures from 29.9° C. to 46.0° C. Akr III retained 15% to 90% activity during 20 min in pH 6 at temperatures from 29.9° C. to 40.7° C.

B1: Akr I: artificial amino acid sequence, variant of a wild type aldo-keto reductase (protein)
chain: MRTTEISQGLKVSNLCIGAGPLGGMPTAFGYDVSEERGIATVQAVFDSPINFMDTSSEYGDSEVRIGKVIREGRMPKGFVIATKADAEGDGTARRGDFSAKQVRASFELSLERLGLTHIDVYFLHDPEKFPFEHVMARGGAMEELLRLKDEGLVGLVGVAGGDVVEMARYVDTGNLDILLNYGRYTLLDRSADSLIDKASDAGMAFLNAGPYASGLLAAPRGGSAWYQYAPPNADALQAVDQLHELCESFDVSLRSVALQFSMRDPRITSTVVGLSRPERVRALLDDAAAEIPAELWDQLPAPLNLPWNSLA
modifications: ArkI
retained activity ([1]; during 4 hours at 30° C. from pH 4.0-10.0): more than 93% | Relative DON-transformation activity ([1]; pH 3.0, 0 h (starting activity set to 100%)): 100.0% | Relative DON-transformation activity ([1]; pH 3.0, 1 h): 0.0% | Relative DON-transformation activity ([1]; pH 3.0, 2 h): 0.0% | Relative DON-transformation activity ([1]; pH 3.0, 3 h): 0.0% | Relative DON-transformation activity ([1]; pH 3.0, 4 h): 0.0% | Relative DON-transformation activity ([1]; pH 4.0, 0 h (starting activity set to 100%)): 100.0% | Relative DON-transformation activity ([1]; pH 4.0, 1 h): 100.6% | Relative DON-transformation activity ([1]; pH 4.0, 2 h): 102.8% | Relative DON-transformation activity ([1]; pH 4.0, 3 h): 101.5% | Relative DON-transformation activity ([1]; pH 4.0, 4 h): 93.8% | Relative DON-transformation activity ([1]; pH 5.0, 0 h (starting activity set to 100%)): 100.0% | Relative DON-transformation activity ([1]; pH 5.0, 1 h): 101.0% | Relative DON-transformation activity ([1]; pH 5.0, 2 h): 101.6% | Relative DON-transformation activity ([1]; pH 5.0, 3 h): 100.8% | Relative DON-transformation activity ([1]; pH 5.0, 4 h): 97.9% | Relative DON-transformation activity ([1]; pH 6.0, 0 h (starting activity set to 100%)): 100.0% | Relative DON-transformation activity ([1]; pH 6.0, 1 h): 100.6% | Relative DON-transformation activity ([1]; pH 6.0, 2 h): 101.9% | Relative DON-transformation activity ([1]; pH 6.0, 3 h): 101.1% | Relative DON-transformation activity ([1]; pH 6.0, 4 h): 100.7% | Relative DON-transformation activity ([1]; pH 7.0.0, 0 h (starting activity set to 100%)): 100.0% | Relative DON-transformation activity ([1]; pH 7.0.0, 1 h): 99.6% | Relative DON-transformation activity ([1]; pH 7.0.0, 2 h): 101.4% | Relative DON-transformation activity ([1]; pH 7.0.0, 3 h): 99.7% | Relative DON-transformation activity ([1]; pH 7.0.0, 4 h): 96.1% | Relative DON-transformation activity ([1]; pH 8.0, 0 h (starting activity set to 100%)): 100.0% | Relative DON-transformation activity ([1]; pH 8.0, 1 h): 101.5% | Relative DON-transformation activity ([1]; pH 8.0, 2 h): 102.4% | Relative DON-transformation activity ([1]; pH 8.0, 3 h): 101.1% | Relative DON-transformation activity ([1]; pH 8.0, 4 h): 101.2% | Relative DON-transformation activity ([1]; pH 9.0.0, 0 h (starting activity set to 100%)): 100.0% | Relative DON-transformation activity ([1]; pH 9.0.0, 1 h): 100.9% | Relative DON-transformation activity ([1]; pH 9.0.0, 2 h): 101.0% | Relative DON-transformation activity ([1]; pH 9.0.0, 3 h): 100.8% | Relative DON-transformation activity ([1]; pH 9.0.0, 4 h): 96.6% | Relative DON-transformation activity ([1]; pH 10.0, 0 h (starting activity set to 100%)): 100.0% | Relative DON-transformation activity ([1]; pH 10.0, 1 h): 100.5% | Relative DON-transformation activity ([1]; pH 10.0, 2 h): 101.4% | Relative DON-transformation activity ([1]; pH 10.0, 3 h): 99.8% | Relative DON-transformation activity ([1]; pH 10.0, 4 h): 96.0% | retained activity ([2]; during 60 min in pH 6 at temperatures from 29.9° C. to 46.0° C.): more than 33% | Relative DON transformation activity ([2]; 29.9° C., 0 min (starting activity set to 100%)): 100.00% | Relative DON transformation activity ([2]; 29.9° C., 5 min): 121.5% | Relative DON transformation activity ([2]; 29.9° C., 10 min): 114.8% | Relative DON transformation activity ([2]; 29.9° C., 20 min): 118.9% | Relative DON transformation activity ([2]; 29.9° C., 35 min): 106.2% | Relative DON transformation activity ([2]; 29.9° C., 50 min): 70.1% | Relative DON transformation activity ([2]; 29.9° C., 60 min): 53.7% | Relative DON transformation activity ([2]; 35.3° C., 0 min (starting activity set to 100%)): 100.00% | Relative DON transformation activity ([2]; 35.3° C., 5 min): 132.8% | Relative DON transformation activity ([2]; 35.3° C., 10 min): 97.7% | Relative DON transformation activity ([2]; 35.3° C., 20 min): 101.5% | Relative DON transformation activity ([2]; 35.3° C., 35 min): 109.7% | Relative DON transformation activity ([2]; 35.3° C., 50 min): 84.6% | Relative DON transformation activity ([2]; 35.3° C., 60 min): 47.0% | Relative DON transformation activity ([2]; 37.9° C., 0 min (starting activity set to 100%)): 100.00% | Relative DON transformation activity ([2]; 37.9° C., 5 min): 130.1% | Relative DON transformation activity ([2]; 37.9° C., 10 min): 101.4% | Relative DON transformation activity ([2]; 37.9° C., 20 min): 110.1% | Relative DON transformation activity ([2]; 37.9° C., 35 min): 109.0% | Relative DON transformation activity ([2]; 37.9° C., 50 min): 77.0% | Relative DON transformation activity ([2]; 37.9° C., 60 min): 48.6% | Relative DON transformation activity ([2]; 40.7° C., 0 min (starting activity set to 100%)): 100.00% | Relative DON transformation activity ([2]; 40.7° C., 5 min): 130.2% | Relative DON transformation activity ([2]; 40.7° C., 10 min): 100.7% | Relative DON transformation activity ([2]; 40.7° C., 20 min): 60.5% | Relative DON transformation activity ([2]; 40.7° C., 35 min): 95.8% | Relative DON transformation activity ([2]; 40.7° C., 50 min): 76.1% | Relative DON transformation activity ([2]; 40.7° C., 60 min): 50.0% | Relative DON transformation activity ([2]; 43.4° C., 0 min (starting activity set to 100%)): 100.00% | Relative DON transformation activity ([2]; 43.4° C., 5 min): 133.6% | Relative DON transformation activity ([2]; 43.4° C., 10 min): 111.3% | Relative DON transformation activity ([2]; 43.4° C., 20 min): 79.1% | Relative DON transformation activity ([2]; 43.4° C., 35 min): 75.2% | Relative DON transformation activity ([2]; 43.4° C., 50 min): 60.2% | Relative DON transformation activity ([2]; 43.4° C., 60 min): 52.9% | Relative DON transformation activity ([2]; 46.0° C., 0 min (starting activity set to 100%)): 100.00% | Relative DON transformation activity ([2]; 46.0° C., 5 min): 125.9% | Relative DON transformation activity ([2]; 46.0° C., 10 min): 123.1% | Relative DON transformation activity ([2]; 46.0° C., 20 min): 83.4% | Relative DON transformation activity ([2]; 46.0° C., 35 min): 61.8% | Relative DON transformation activity ([2]; 46.0° C., 50 min): 3.0% | Relative DON transformation activity ([2]; 46.0° C., 60 min): 33.1% | Relative DON transformation activity ([2]; 50.8° C., 0 min (starting activity set to 100%)): 100.00% | Relative DON transformation activity ([2]; 50.8° C., 5 min): 118.6% | Relative DON transformation activity ([2]; 50.8° C., 10 min): 44.2% | Relative DON transformation activity ([2]; 50.8° C., 20 min): 16.3% | Relative DON transformation activity ([2]; 50.8° C., 35 min): 4.9% | Relative DON transformation activity ([2]; 50.8° C., 50 min): 7.5% | Relative DON transformation activity ([2]; 50.8° C., 60 min): 0%
